Where a chain is given by its changes, count along the chain named.
Experiments:
MipZ K13A = target: T1, MipZ K13A (Caulobacter crescentus, UniProt Q9A6C9 1-278, K13A); assay: MST; low-affinity group, KD >> 10 uM; EMSA: 10 mM HEPES/NaOH pH 7.2, 150 mM NaCl, 10 mM MgCl2, 0.05% Tween 20, 0.46 mM ATPgS, room temp; BLI: 50 mM HEPES/NaOH pH 7.2, 50 mM NaCl, 5 mM MgCl2, 0.1 mM; settings: protein: recombinant; tags: C-terminal His6 (pET21a); label: Cy3 (5') on strand 1; blunt
T1 sequence: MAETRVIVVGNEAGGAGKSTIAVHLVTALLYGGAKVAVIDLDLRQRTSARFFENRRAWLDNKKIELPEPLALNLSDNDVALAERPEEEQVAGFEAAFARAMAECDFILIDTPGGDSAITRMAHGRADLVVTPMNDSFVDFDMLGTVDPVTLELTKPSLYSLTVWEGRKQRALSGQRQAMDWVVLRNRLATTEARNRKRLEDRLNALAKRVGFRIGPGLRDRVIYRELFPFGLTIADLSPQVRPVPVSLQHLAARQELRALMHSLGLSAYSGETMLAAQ

MipZ K197A = target: T2, MipZ K197A (Caulobacter crescentus, UniProt Q9A6C9 1-278, K197A); assay: as above; settings: protein: recombinant; tags: C-terminal His6 (pET21a); chain copies: 2; label: Cy3 (5') on strand 1; blunt
T2 sequence: T1 sequence with A13K, K197A

MipZ R219A = target: T3, MipZ R219A (Caulobacter crescentus, UniProt Q9A6C9 1-278, R219A); assay: as above; settings: protein: recombinant; tags: C-terminal His6 (pET21a); chain copies: 2; label: Cy3 (5') on strand 1; blunt
T3 sequence: T1 sequence with A13K, R219A

MipZ R221A = target: T4, MipZ R221A (Caulobacter crescentus, UniProt Q9A6C9 1-278, R221A); assay: MST; hardly any binding; EMSA: 10 mM HEPES/NaOH pH 7.2, 150 mM NaCl, 10 mM MgCl2, 0.05% Tween 20, 0.46 mM ATPgS, room temp; BLI: 50 mM HEPES/NaOH pH 7.2, 50 mM NaCl, 5 mM MgCl2, 0.1 mM; settings: protein: recombinant; tags: C-terminal His6 (pET21a); chain copies: 2; label: Cy3 (5') on strand 1; blunt
T4 sequence: T1 sequence with A13K, R221A

MipZ R198A = target: T5, MipZ R198A (Caulobacter crescentus, UniProt Q9A6C9 1-278, R198A); assay: as above; settings: protein: recombinant; tags: C-terminal His6 (pET21a); chain copies: 2; label: Cy3 (5') on strand 1; blunt
T5 sequence: T1 sequence with A13K, R198A

MipZ R194A = target: T6, MipZ R194A (Caulobacter crescentus, UniProt Q9A6C9 1-278, R194A); assay: as above; settings: protein: recombinant; tags: C-terminal His6 (pET21a); chain copies: 2; label: Cy3 (5') on strand 1; blunt
T6 sequence: T1 sequence with A13K, R194A

B1: rand-Cy3/rand-rev 26 bp (dsDNA)
DNA 1: GAGGCAGACTAGATCTTCTAGTTCGG
DNA 2: CCGAACTAGAAGATCTAGTCTGCCTC
Kd (MipZ K13A): > 10 µM | Kd (MipZ K197A): > 10 µM | Kd (MipZ R219A): > 10 µM | binding result (MipZ R221A): no binding | binding result (MipZ R198A): no binding | binding result (MipZ R194A): no binding

From paper PMC7229837, “Molecular architecture of the DNA-binding sites of the P-loop ATPases MipZ and ParA from Caulobacter crescentus”
